How the values were obtained:
[1] = molecular target: analytical polyclonal antibody generated in Example 2; test: SPR Biacore T100, polyclonal immobilized, 500 nM ISV
[2] = molecular target: antibodies against ISV in serum sample IHUS#B09032311A1; test: ECL drug-displacement assay vs labelled SEQ ID NO:1
[3] = molecular target: antibodies against ISV in serum sample IHUS#B09032311A3; test: as above
[4] = molecular target: antibodies against ISV in serum sample IHUS#B09032311A20; test: as above
[5] = molecular target: affinity purified antibody IHuP#002-001-ABL-08; test: bridging/competition ADA assay, 10 ug/ml ISV vs labelled ISV

B1: NB 3.12 (VHH)
VHH: EVQLVESGGGLVQAGGSLRLSCAASRSIGRLDRMGWYRHRPGEPRELVATITGGSSINYGDSVKGRFTISIDNSKNTVYLQMNSLRPEDTAVYYCNFNKYVTSRDTWGQGTQVTVSS
**Q.** B1 was tested. Which Binding (RU) at end of injection [1] did it give?
**A.** 86 RU

B2: NB 3.13 (VHH)
VHH: EVQLVESGGGLVQPGGSLRLSCAASRSIGRLDRMGWYRHRPGEPRELVATITGGSSINYGDSVKGRFTISIDNSKNTVYLQMNSLRPEDTAVYYCNFNKYVTSRDTWGQGTQVTVSS
**Q.** How did the Binding (RU) at end of injection [1] turn out when B2 was run?
**A.** 90 RU

B3: NB 3.10 (VHH)
VHH: EVQLVESGGGLVQAGGSLRLSCAASRSIGRLDRMGWYRHRPGEPRELVATITGGSSINYGDSVKGRFTISIDNSKNTVYLQMNSLRPEDTAVYYCNFNKYVTSRDTWGQGTLVTVSS
**Q.** Which Binding (RU) at end of injection [1] does the source give for B3 here?
**A.** 91 RU

B4: NB 3.15 (VHH)
VHH: EVQLVESGGGSVQPGGSLRLSCAASRSIGRLDRMGWYRHRPGEPRELVATITGGSSINYGDSVKGRFTISIDNSKNTVYLQMNSLRPEDTAVYYCNFNKYVTSRDTWGQGTLVTVSS
**Q.** With B4 as the binder, how does the Binding (RU) at end of injection [1] read?
**A.** 22 RU

B5: NB 3.14 (VHH)
VHH: EVQLVESGGGLVQPGGSLRLSCAASRSIGRLDRMGWYRHRPGEPRELVATITGGSSINYGDSVKGRFTISIDNSKNTVYLQMNSLRPEDTAVYYCNFNKYVTSRDTWGQGTLVQVSS
**Q.** For B5, which Binding (RU) at end of injection [1] is on record?
**A.** 79 RU

B6: NB 3.11 (VHH)
VHH: EVQLVESGGGLVQPGGSLRLSCAASRSIGRLDRMGWYRHRPGEPRELVATITGGSSINYGDSVKGRFTISIDNSKNTVYLQMNSLKPEDTAVYYCNFNKYVTSRDTWGQGTLVTVSS
**Q.** Which Binding (RU) at end of injection [1] does the source give for B6 here?
**A.** 88 RU

B7: SEQ ID NO: 23, Wildtype VHH (VHH)
VHH: EVQLVESGGGLVQAGGSLRLSCAASGRTFNNYAMGWFRRAPGKEREFVAAITRSGVRSGVSAIYGDSVKDRFTISRDNAKNTLYLQMNSLKPEDTAVYTCAASAIGSGALRRFEYDYSGQGTQVTVSS
**Q.** How did the % reduction [2] turn out when B7 was run?
**A.** 4%

**Q.** And the ECLU confirmatory assay [2]?
**A.** 60 ECLU

**Q.** What about the % reduction [3] of the same binder?
**A.** 20%

**Q.** And the ECLU confirmatory assay [3]?
**A.** 1780 ECLU

**Q.** And the % reduction [4]?
**A.** 53%

**Q.** What about the ECLU confirmatory assay [4] of the same binder?
**A.** 8680 ECLU

**Q.** And the % reduction [5]?
**A.** 7.3%

**Q.** What about the ECLU confirmatory assay [5] of the same binder?
**A.** 2710 ECLU

B8: SEQ ID NO: 29, Wildtype VHH + A14P + R39Q + K83R + T91Y + Q108L + 1 additional A at C-terminus (A114) (VHH)
VHH: EVQLVESGGGLVQPGGSLRLSCAASGRTFNNYAMGWFRQAPGKEREFVAAITRSGVRSGVSAIYGDSVKDRFTISRDNAKNTLYLQMNSLRPEDTAVYYCAASAIGSGALRRFEYDYSGQGTLVTVSS
**Q.** Which % reduction [3] does the source give for B8 here?
**A.** 18%

**Q.** What about the % reduction [5] of the same binder?
**A.** 58.6%

**Q.** What about the ECLU confirmatory assay [5] of the same binder?
**A.** 1210 ECLU

B9: SEQ ID NO: 30, Wildtype VHH + A14P + R39Q + K83R + T91Y + Q108L + 3 A's at C-terminus (A114 + A115 + A116) (VHH)
VHH: EVQLVESGGGLVQPGGSLRLSCAASGRTFNNYAMGWFRQAPGKEREFVAAITRSGVRSGVSAIYGDSVKDRFTISRDNAKNTLYLQMNSLRPEDTAVYYCAASAIGSGALRRFEYDYSGQGTLVTVSS
**Q.** How did the % reduction [3] turn out when B9 was run?
**A.** 13%

**Q.** What about the % reduction [5] of the same binder?
**A.** -13.1%

**Q.** What about the ECLU confirmatory assay [5] of the same binder?
**A.** 3300 ECLU

B10: SEQ ID NO: 24, Wildtype VHH + A14P (VHH)
VHH: EVQLVESGGGLVQPGGSLRLSCAASGRTFNNYAMGWFRRAPGKEREFVAAITRSGVRSGVSAIYGDSVKDRFTISRDNAKNTLYLQMNSLKPEDTAVYTCAASAIGSGALRRFEYDYSGQGTQVTVSS
**Q.** What does the source list for B10?
**A.** % reduction [2]: 10%; ECLU confirmatory assay [2]: 56 ECLU; % reduction [3]: 91%; ECLU confirmatory assay [3]: 205 ECLU; % reduction [4]: 96%; ECLU confirmatory assay [4]: 668 ECLU; % reduction [5]: 90.8%; ECLU confirmatory assay [5]: 268 ECLU

B11: SEQ ID NO: 27, Wildtype VHH + A14P + K83R + Q108L (VHH)
VHH: EVQLVESGGGLVQPGGSLRLSCAASGRTFNNYAMGWFRRAPGKEREFVAAITRSGVRSGVSAIYGDSVKDRFTISRDNAKNTLYLQMNSLRPEDTAVYTCAASAIGSGALRRFEYDYSGQGTLVTVSS
**Q.** Which results are given for B11?
**A.** % reduction [5]: 89.1%; ECLU confirmatory assay [5]: 319 ECLU

B12: SEQ ID NO: 26, Wildtype VHH + Q108L (VHH)
VHH: EVQLVESGGGLVQAGGSLRLSCAASGRTFNNYAMGWFRRAPGKEREFVAAITRSGVRSGVSAIYGDSVKDRFTISRDNAKNTLYLQMNSLKPEDTAVYTCAASAIGSGALRRFEYDYSGQGTLVTVSS
**Q.** For B12, which % reduction [2] is on record?
**A.** 5%

**Q.** What about the ECLU confirmatory assay [2] of the same binder?
**A.** 59 ECLU

**Q.** And the % reduction [3]?
**A.** 31%

**Q.** What about the ECLU confirmatory assay [3] of the same binder?
**A.** 1530 ECLU

**Q.** What about the % reduction [4] of the same binder?
**A.** 62%

**Q.** And the ECLU confirmatory assay [4]?
**A.** 6990 ECLU

**Q.** And the % reduction [5]?
**A.** 13.2%

**Q.** And the ECLU confirmatory assay [5]?
**A.** 2530 ECLU

B13: SEQ ID NO: 28, Wildtype VHH + A14P + R39Q + K83R + T91Y + Q108L (VHH)
VHH: EVQLVESGGGLVQPGGSLRLSCAASGRTFNNYAMGWFRQAPGKEREFVAAITRSGVRSGVSAIYGDSVKDRFTISRDNAKNTLYLQMNSLRPEDTAVYYCAASAIGSGALRRFEYDYSGQGTLVTVSS
**Q.** Which results are given for B13?
**A.** % reduction [3]: 90%; % reduction [5]: 91.4%; ECLU confirmatory assay [5]: 251 ECLU

B14: SEQ ID NO: 25, Wildtype VHH + K83R (VHH)
VHH: EVQLVESGGGLVQAGGSLRLSCAASGRTFNNYAMGWFRRAPGKEREFVAAITRSGVRSGVSAIYGDSVKDRFTISRDNAKNTLYLQMNSLRPEDTAVYTCAASAIGSGALRRFEYDYSGQGTQVTVSS
**Q.** B14 was tested. Which % reduction [2] did it give?
**A.** 1%

**Q.** And the ECLU confirmatory assay [2]?
**A.** 62 ECLU

**Q.** And the % reduction [3]?
**A.** 37%

**Q.** What about the ECLU confirmatory assay [3] of the same binder?
**A.** 1400 ECLU

**Q.** And the % reduction [4]?
**A.** 63%

**Q.** What about the ECLU confirmatory assay [4] of the same binder?
**A.** 6910 ECLU

**Q.** What about the % reduction [5] of the same binder?
**A.** 15.7%

**Q.** What about the ECLU confirmatory assay [5] of the same binder?
**A.** 2460 ECLU
